# According to US12533409B2, “Compositions and methods for targeting mutant RAS” (The Trustees of the University of Pennsylvania, priority 2019, dated 2026):
# B1: TCR847: TCR construct, TRAV17 and TRBV10-3; fusion protein SEQ ID NO: 80; HLA-B*07:02 (protein)
# chain: METLLGVSLVILWLQLARVNSQQGEEDPQALSIQEGENATMNCSYKTSINNLQWYRQNSGRGLVHLILIRSNEREKHSGRLRVTLDTSKKSSSLLITASRAADTASYFCATFPNFGNEKLTFGTGTRLTIIPNIQNPDPAVYQLRDSKSSDKSVCLFTDFDSQTNVSQSKDSDVYITDKTVLDMRSMDFKSNSAVAWSNKSDFACANAFNNSIIPEDTFFPSPESSCDVKLVEKSFETDTNLNFQNLSVIGFRILLLKVAGFNLLMTLRLWSSGSGEGRGSLLTCGDVEENPGPMGTRLFFYVALCLLWTGHMDAGITQSPRHKVTETGTPVTLRCHQTENHRYMYWYRQDPGHGLRLIHYSYGVKDTDKGEVSDGYSVSRSKTEDFLLTLESATSSQTSVYFCAISESERYYEQYFGPGTRLTVTEDLKNVFPPEVAVFEPSEAEISHTQKATLVCLATGFYPDHVELSWWVNGKEVHSGVSTDPQPLKEQPALNDSRYCLSSRLRVSATFWQNPRNHFRCQVQFYGLSENDEWTQDRAKPVTQIVSAEAWGRADCGFTSESYQQGVLSATILYEILLGKATLYAVLVSALVLMAMVKRKDSRG
# modifications: TCR847 FUSION
# notes: TCR construct, TRAV17 and TRBV10-3; HLA-B*07:02
# Tests used:
# HLA-A*03:01 [1] = molecular target: T1, HLA-A*03:01 (Homo sapiens, UniProt P04439); test: Competitive peptide binding fluorescence polarization assay; settings: peptide-MHC binding; strong binding affinity indicated by log[IC50]<3.7 (FIG. 6A)
# Protocol: (§1) Experiments were also conducted to examine peptide-MHC binding.
# HLA-A*11:01 [2] = molecular target: T2, HLA-A*11:01 (Homo sapiens, UniProt P04439, A114D/D185E/E176A/F33Y/L180Q/S129P/T187R); test: as above; settings: peptide-MHC binding; strong binding affinity indicated by log[IC50]<3.7 (FIG. 6A)
# Protocol: as §1
# HLA-A*11:01 [3] = molecular target: T2, HLA-A*11:01; test: HLA class I immunoprecipitation peptide elution and tandem Mass Spec (MS/MS), monoallelic K562 RAS TMG cell lines; type: cell-based; set-up: expressed in transfected cells; host or cells: K562, lentiviral HLA construct plus RAS tandem minigene construct; settings: A*11:01-restricted; antigen processing/presentation
# Excerpt: (§2) Additional antigen processing and presentation studies were done using mass spectrometry. First, monoallelic K562 cell lines were created to express specific HLA types (FIG. 7A). Further, lentiviral constructs expressing various wt RAS and mRAS peptides were generated (FIG. 7E). Monoallelic cell lines that express specific HLA types and the various RAS and mRAS peptides were then created. The expression of HLA class I and HLA-specific expression of RAS TMG cells lines were verified by FACS (FIG. 7C and FIG. 7D).
# (§3) Further, novel epitopes are identified for HLA-B*07:02.
# HLA-A*03:01 [4] = molecular target: T1, HLA-A*03:01; test: as above; type: cell-based; set-up: expressed in transfected cells; host or cells: K562, lentiviral HLA construct plus RAS tandem minigene construct; settings: A*03:01-restricted; antigen processing/presentation
# Excerpt: as §2, §3
# HLA-B*07:02 = HLA-B*07:02 (Homo sapiens, UniProt P01889); test: as above; type: cell-based; set-up: expressed in transfected cells; host or cells: K562, lentiviral HLA construct plus RAS tandem minigene construct; settings: B*07:02-restricted; antigen processing/presentation
# Excerpt: as §2, §3
# [5] = tested on: alternatively mutated RAS epitopes; test: Jurkat Reporter assay of TCR specificity and cross-reactivity; type: cell-based; settings: Jurkat Reporter cells; HLA-B*07:02-restricted TCR
# Protocol: (§4) Further experiments were conducted to characterize TCR896 expression and function. TCR896 expression was validated by peptide-MHC multimer staining of lentiviral-transduced Jurkat Reporter cells, as shown in FIG. 28A. FIG. 28B depicts the results of experiments assessing TCR896 avidity by Jurkat Reporter cells. Experiments were conducted assessing TCR specificity and cross-reactivity to alternative mutant RAS epitopes by Jurkat Reporter assay. […] FIG. 28D depicts TCR activation of Jurkat Reporter cells following coculture with A*03:01 positive RAS G12V tumor cell lines.
# (§5) Further experiments were done to characterize TCR847 expression and function. TCR847 expression was validated by peptide-MHC multimer staining of lentiviral-transduced Jurkat Reporter cells, as shown in FIG. 29A. FIG. 29B depicts the results of experiments assessing TCR specificity and cross-reactivity to alternative mutant RAS epitopes by Jurkat Reporter assay.
# (§6) Further experiments were conducted to characterize TCR864 expression and function. TCR864 expression was validated by peptide-MHC multimer staining of lentiviral-transduced Jurkat Reporter cells, as shown in FIG. 30A. FIG. 30B depicts the results of experiments assessing TCR864 avidity by Jurkat Reporter cells. Experiments were conducted to examine TCR864 specificity and cross-reactivity to alternative mutant RAS epitopes by Jurkat Reporter assay. […] The expression of TCR864 on primary CD8+ T cells is depicted in FIG. 30D.
# RAS G12R (GA_R) = RAS G12R (GA_R) (Homo sapiens, UniProt P01116+P01889, G12R); test: as above; type: cell-based; settings: Jurkat Reporter cells
# Protocol: as §5, §6
# wildtype RAS epitope = test: as above; type: cell-based; settings: Jurkat Reporter cells; HLA-B*07:02-restricted TCR
# Protocol: The validation of TCR831 expression by peptide-MHC multimer staining of lentiviral-transduced Jurkat Reporter cells is shown in FIG. 25A. Experiments were conducted to examine TCR831 avidity by Jurkat Reporter cells (FIG. 25B). Experiments were also conducted to assess TCR831 specificity and cross-reactivity to alternative mutant RAS epitopes by Jurkat Reporter assay. […] depicts TCR activation of Jurkat Reporter cells following coculture with A*11:01 positive RAS G12V tumor cell lines. FIG. 25E depicts the expression of TCR831 on primary CD8+ T cells. […] Cell line coloring corresponds to that in FIG. 25D.
# Experiments were also conducted to further characterize the expression and function of TCR833. The validation of TCR833 expression by peptide-MHC multimer staining of lentiviral-transduced Jurkat Reporter cells is shown in FIG. 26A. FIG. 26B depicts the results of experiments assessing TCR833 avidity by Jurkat Reporter cells. Experiments were also conducted to assess TCR833 specificity and cross-reactivity to alternative mutant RAS epitopes by Jurkat Reporter assay. […] FIG. 26D depicts TCR833 activation of Jurkat Reporter cells following coculture with A*11:01 positive RAS G12V tumor cell lines.
# as §5, with “conducted” for “done”, “TCR897” for “TCR847”, “27A.” for “29A.”, “27B” for “29B”, “TCR897 avidity by Jurkat Reporter cells. Experiments were conducted to assess TCR897” for “TCR”
# as §4, §5, §6
Molecule,binding affinity of mRAS neoepitope for HLA-A*11:01 (HLA-A*11:01 [2]),detection of mRAS epitope by HLA class I immunoprecipitation peptide elution and MS/MS (HLA-A*11:01 [3]),detection of mRAS epitope by HLA class I immunoprecipitation peptide elution and MS/MS (HLA-A*03:01 [4]),also measured
"VVVGARGVGK (VVV_R) [mRAS peptide, G12R, HLA-A*03:01 and HLA-A*11:01]",high binding affinity,–,–,binding affinity of mRAS neoepitope for HLA-A*03:01 (HLA-A*03:01 [1]): high binding affinity
VVGADGVGK [VV_D],high binding affinity,detection,–,–
VVGACGVGK [VV_C],high binding affinity,–,–,–
"VVGARGVGK (VV_R) [mRAS peptide, G12R, HLA-A*03:01 and HLA-A*11:01]",high binding affinity,detection,detection,–
VVVGADGVGK [VVV_D],high binding affinity,detection,detection,–
VVVGAVGVGK [VVV_V],high binding affinity,detection,detection,binding affinity of mRAS neoepitope for HLA-A*03:01 (HLA-A*03:01 [1]): high binding affinity
"GADGVGKSAL (GA_D) [mRAS peptide, G12D, HLA-B*07:02]",–,–,–,detection of mRAS epitope by HLA class I immunoprecipitation peptide elution and MS/MS (HLA-B*07:02): identified new epitopes
B1,–,–,–,reactivity to alternatively mutated RAS epitopes [5]: not wildtype or alternatively mutated; specificity for RAS G12R (GA_R) (RAS G12R (GA_R)): exhibits specificity; reactivity to wildtype (wildtype RAS epitope): not wildtype
